Measurements: patent US20150104459A1 (published 2015)

Target: Hemagglutinin of influenza A/Solomon Islands/3/06 (H1N1) on whole virions (Influenza A virus A/Solomon …)
Test: cell-based or functional assay

Row | Binder | % Neutralization [%]
1 | TCN-539 (5056_A08) (antibody, V domains shown) VH: QVQLVESGGGVVQPGRSLRLSCAASEITFITYAMHWVRQAPGKGLEWVALISDDGSNKFYADSVKGRFTISRDNSKNTLYLQMNSLRAEDTAAYYCAREGVYFDSGTYRGYFDYWGQETLVTVSS VL: EIVLTQSPATLSLSPGERATLSCRASQSVSSYLAWYQQKPGQAPRLLIYDASNRATGIPARFSGSGSGTDFTLTISSLEPEDFAVYYCQQRSHWPPITFGQGTRLEIK | 97
2 | TCN-534 (5249_B02) (antibody, V domains shown) VH: QVQLVQSGAEVKKPGSSVKVSCRESGGTFNGYTITWVRQAPGQGLEWMGGIIPMMGTVNYAQKLQGRVTITTDYFTKTAYMDLNNLRSEDTAMYYCVKIRYTGQQLLWGQGTLVTVSS VL: DIQMTQSPSTLSASIGDRVTITCRASQSIASWLAWYQQKPGKAPKLLIYEAVNLESGVPSRFSGSGSGTDFTLTISSLQPDDFATYFCQHYGTISQTFGGGTKVEIK | 86
3 | TCN-526 (5084_C17) (antibody, V domains shown) VH: EVLMVESGGGLVQPGGSVRLSCVASGFSFSSHWMTWVRQAPGKGLEWVANIEDDGGDKYYVDSVKGRFIISRDNAKNSVYLQMNSLRAEDTAVYFCARGSGSSDRSDYDPHYYYYLDVWGKGATVTVSS VL: DIQLTQSPSSLSASVGDRVTITCRASQSISRYLNWYQQKPGKAPKLLLFAASTLLDGVPSRFSGSGSGTDFTLTISSLQPEDFATYYCQRNHSPSWTFGQGTRVEIK | 0
4 | TCN-529 (5297_H01) (antibody, V domains shown) VH: QITLRESGPTLVKPTQTLTLTCTFSGFSLSTNGVNVGWIRQPPGKALEWLALIYWDDDKRYSPSLKRRLTITKDTSKNQVVLTLTNMDPVDTATYYCAHRPDFYGDFEYWGPGTLVTVSS VL: QSALTQPASVSGSPGQSITISCTGSSSDIGGYNYVSWYQQHPGKAPKLMIYDVNNRPSGVSNRFSGSKSGNTASLTISGLQTDDEADYYCGSYTGSPHYVFGTGTKVTVL | 0
5 | TCN-543 (5081_G23) (antibody, V domains shown) VH: QVHLVQSGAEVRKPGDSVKVSCKTSGYTFSTYPVAWVRQVPGQGLEWMGWISTYNGNTNFAQNFQGRVTLTTDTTTNTAYMEVRSLKFDDTAVYYCARVEGSYRDFWNNQNRFDPWGQGTLVTVSS VL: SYVLTQPPSVSVAPGQTARISCGGSNIGGKSVHWYQQKPGQAPVLVVYDDSGRPSGIPERFSGSNSGDTATLTISRVEAGDEADYFCQVWDNFGGVFGTGTKVTVL | 100
6 | TCN-527 (5086_C06) (antibody, V domains shown) VH: QVQLQESGPGLVKPSETLSLNCAVSGGSISNYYWSWIRQPPGKGLEWIGYISYNGRPKYNPSLTSRVTISVDTSKDQFSLELRSVTAADTALYYCARETRFGELLSPYDAFEIWGQGTMVTVSS VL: DIQMTQSPSSLSASVGDRVTMTCRASQNIRSYLNWYQQRPGTAPKLLIYAASTLHSGVPSRFSGGGSGTDFTLTINNLQPEDFASYYCQQSYDNPQTFGQGTKVEIK | 12
7 | TCN-542 (5079_A16) (antibody, V domains shown) VH: QVQLQESGPGLVKPSQTLSLTCTVSGGSISSGNYYWNWVRQHPGKGLEWIGYIYYRGSTFYNPSLKSRVTISIDTSKNQFSLRLSSVTAADTAVYYCAKDTRSSLDNYQYGMDVWGQGTTVTVSS VL: QTVVTQEPSLTVSPGGTVTLTCASSTGAVTSSYFPNWFQQKPGQAPRPLIYSTTIRHSWTPARFSGSLLGGKAALTLSGVQPEDEADYYCLLYSGGDPVAFGGGTKLTVL | 98
8 | TCN-528 (5087_P17) (antibody, V domains shown) VH: QVQLVQSGSEVKKPGASVKVSCKASGYTFTNYDINWIRQAPGQGLEWMGWINPNSGTTGSAQRFQGRVTITVDTSITTVYMELSSLRSDDTAIYYCARGRELLRLQHFLTDSQSERRDCFDPWGQGTLVTVSS VL: DIQMTQSPSSLSASVGDRVTITCRANQDIGIYLNWYQQNPGKVPKLLLHGASSLQGGVPSRFSASGSGTDFTLTIHSLQPEDLATYYCQQSRRLPYTFGQGTRVELK | 0
9 | TCN-538 (3206_O17) (antibody, V domains shown) VH: QITLKESGPTLVKPTQTLTLTCVFSGFSLSITGVRVGWIRQPPGKALEWLALISWDDEKHYSPSLQSRLTITKDTSKNQVVLTMTNLDPVDTATYYCARSTDRGHVLRYFGWMLPGDAFDVWGQGTMVTVSS VL: DIVMTQSPDFLPVSLGERATINCKSSQRVLYSSNNKNYLAWYQLKPGQPPKLIIYWASTRESGVPDRFSGSGSGTEFTLTISSLQAEDVAVYYCQQYYSRPYTFGQGTKLEIK | 35
10 | TCN-531 (5091_H13) (antibody, V domains shown) VH: EVQLVESGGDLVQPGRSLKLSCTGSGFTFGDYGVTWVRQAPGKGLEWVGFIRTRPWGGTADTAASVKGRFTISRDDSKSLAYLQMNSLKTEDTAVYYCCRDAPPNVEVASMTNWYFDLWGRGTLVTVSS VL: DIQLTQSPSSLSASVGDRVTITCRASQGILNCLAWYQQKPGKVPNLLMYAASTLQSGVPSRFSGSGFGTDFTLTISSLQPEDVATYYCQTYGGVSTFGGGTKVEIR | 65
11 | TCN-530 (5248_H10a) (antibody, V domains shown) VH: QVQLVQSGAEVRKPGSSVKVSCKASGGPFMSYAIGWVRQAPGQGLEWMGGINPVFGRPHYAQKFQGRVTIATDDSTKTSYMELSSLTSEDTGMYYCASRYSRSSPGTFESWGQGTLVTVSS VL: EIVMTQFPATLSVSPGERVTLSCRASQSVSNNLAWYQQKPGQPPRLLIYDASTRATGVPAKFSGTGSGTEFTLSISSLQSEDFAVYYCQQYHNWPPSYSFGLGTKLEIK | 64
12 | TCN-545 (5082_I15) (antibody, V domains shown) VH: QVQLQQWGAGLLKPSETLSLSCAVFGGSFSDYYWTWIRQPPGKGLEWIGEIKHSGRTNYNPSLESRVTISVDTSKNQFSLKLSSVTAADTAIYYCARGTDPDTEGYCRSGSCSAFDFWGQGTLVTVSS VL: EIVLTQSPGTLSLSPGERATLSCRASHFVNYRSLAWYQQTPGQVPRLLIYGASTRATGIPDRFSGSGSGTDFTLTISRLEPEDFAVYFCQQYGGSPRYTFGQGTRLEIK | 98
13 | TCN-533 (5256_A17) (antibody, V domains shown) VH: QVQLVQSGADVKKPGSSVTVSCKASGGSFSNYGINWVRQAPGQGLEWMGGIIPLINAPNYAPKFQGRVTITADMFSNIVSLQLTSLRTDDTAVYYCARRKMTTAIDYWGQGTLVTVSS VL: QPVLSQPPSASASLGASVTLTCTLSSGFDNYQVAWYQQRPGKGPRFVMRVGNGGNVASKGDGIPDRFSVSGSGLNRYLTIKNIQEDDESDYYCGADHGSGNNFVSPYVFGGGTKLTVL | 56
14 | TCN-537 (3194_D21) (antibody, V domains shown) VH: QVQLQQWGSGLLKPSETLSLTCAVYGGSFRDDYWTWIRQPPGKGLEWIGEINHSGRTNYNPSLKSRVTISVDTSLKQFSLKVISVTAADTAVYYCARGTSHVSRYFDWLPPTNWFDPWGQGTQVTVSS VL: DIVLTQSPGTLSLSPGERATLSCRASQSVSSSYLAWYQQKPGQAPRLVMYGAATRATGIPDRFSGSGSGPDFTLTISRLEPEDFAMYYCQQYGNSPITFGQGTRLEIK | 89
15 | TCN-535 (5246_P19) (antibody, V domains shown) VH: QVQLVQSGSEVKKPGTSVKVSCTASGSVFTNYGISWVRQAPGQGLEWMGGIIPLFGAAKYAQKFQGRVTITADESTKTVYMELSRLTSKDTAIYFCAKAPRVYEYYFDQWGQGTPVTVSS VL: EIVLTQSPGTLSLSPGERATLSCRASQSVSSSQLAWYQQKPGQAPRLIIYGASTRATGIPDRFSGSGSGTDFTLTIGRLEPEDFAVFFCQQYSTSPPTFGQGTKVDFK | 82
16 | TCN-546 (5089_L08) (antibody, V domains shown) VH: QVQLQQWGAGLLKPSETLSLTCGVYGGSLSDYYWSWIRQPPGKGLEWIGEINHSGGTNYNPSLKRRVTISVDTSKKQFSLKMNSVTAADTAVYYCARGTDPDTEVYCRAGNCAAFDFWGQGTLVTVSS VL: EIVLTQSPGTLSLSPGERATLSCRASHFVIGRAVAWYQQKPGQAPRLLIYGASSRATGIPDRFSGSGSGTDFTLTISRLETEDFAVFYCQHYGSSPRYAFGQGTKLEIK | 0
17 | TCN-536 (5095_N01) (antibody, V domains shown) VH: QVQLQQWGAGLLKPSETLSLTCAVYGGSFSVSGYYWSWIRQPPGRGLEWIGEISHGGSTNYNPSLKSRVTISVDTTKNQFSLRLSSVTAADTAVYYCARGTDPDTEVYCRVGNCAAFDYWGQGSLVTVSS VL: EIILAQSPGTLSLSPGERATLSCRASQFVSTRSLAWYQQRPGQAPRLLIYGASSRATGIPDRFSGSGSGTDFTLTISRLEPEDFAVYYCQHYGYSPRYAFGQGSKVEIK | 75
18 | TCN-532 (5262_H18) (antibody, V domains shown) VH: QVQLQESGPGLVKPSETLSLTCTVSGGSVSSETYYWSWIRQPPGKGLEWIGYIYYIGNTDYRPSLKSRVTISLDTSKNQFSLKLSSVTAADTAVYYCARGAYYDSSGYPAFYIWGQGTMVTVSS VL: QSVLTQPPSVSGAPGQRVTISCTGSSSNIGSDYDVHWYKQLPGTAPKLLIFGNSNRPSGVPDRFSGSKSGTSASLAITGLQAEDEADYYCQSYDSSLSGFHVFGSGTKVTVL | 11
19 | TCN-540 (5060_F05) (antibody, V domains shown) VH: QVQLVQSGGGVVQPGRSLRLSCAASGFTFSSYAMHWVRQAPGKGLEWVAIISYDGNDQYYTDSVKGRFTISRDSSKVYLQMHRLRPEDTAVYYCAKEFETSGYFHGSFDYWGQGILVTVSS VL: QSALTQPASVSGSPGQSITISCTGTSSDVGGYNYVSWYQQHPGKAPKLLIYEVTNWPSGVSNRFSGSKSGNTASLTISGLQAEDEADYYCSSYAGSSTWVFGGGTRVTVL | 100
20 | TCN-544 (5082_A19) (antibody, V domains shown) VH: QVQLQESGPGLVKPSETLSLTCTVSRGSIGHYFWSWIRQPPGKGLEWIGYISYSGSTKYNPSLRSRVTISVDTSKNQFSLNLNSVTATDTALYYCAREDYDILTGAGPGMEVWGQGTTVTVSS VL: QSMLTQPPSASGTPGQRVTISCSGSSSNIGSNTVNWFKHLPGTAPKLLIYRNDLRPSGVPDRFSGSKSGTSASLAISGLQSEDEADYYCATWDDSLNGFYVFGTGTKVTVL | 95
21 | TCN-522 (3212_I12) (antibody, V domains shown) VH: QVQLQQWGAGLLKPSETLSLTCTVSGGSLTDYSWNWIRQPPGKGLEWIGDTLHNGYTNYNPSLRGRVSISIDTSKNQVSLRLTSVTAADTALYYCARGSGGYGGFDYFGKLRTWDFWGQGTLVTVSS VL: DIQLTQSPSSLSASVGDRVTITCRASQGIRNDLGWYQQKPGNAPKRLIFGASSLQSGVPSRFSGSGSGTEFTLTISSLQPEDFATYYCLQHNSYPYTFGQGTKLEIK | 33
